In patent publication US20220315967A1, “METHODS FOR PRODUCING D-TRYPTOPHAN AND SUBSTITUTED D-TRYPTOPHANS” (priority 2019, published 2022):

Tests used:
[1] = target: T1, D-tryptophanyl-S-IvoA-ΔC(E^0)
T1 chain: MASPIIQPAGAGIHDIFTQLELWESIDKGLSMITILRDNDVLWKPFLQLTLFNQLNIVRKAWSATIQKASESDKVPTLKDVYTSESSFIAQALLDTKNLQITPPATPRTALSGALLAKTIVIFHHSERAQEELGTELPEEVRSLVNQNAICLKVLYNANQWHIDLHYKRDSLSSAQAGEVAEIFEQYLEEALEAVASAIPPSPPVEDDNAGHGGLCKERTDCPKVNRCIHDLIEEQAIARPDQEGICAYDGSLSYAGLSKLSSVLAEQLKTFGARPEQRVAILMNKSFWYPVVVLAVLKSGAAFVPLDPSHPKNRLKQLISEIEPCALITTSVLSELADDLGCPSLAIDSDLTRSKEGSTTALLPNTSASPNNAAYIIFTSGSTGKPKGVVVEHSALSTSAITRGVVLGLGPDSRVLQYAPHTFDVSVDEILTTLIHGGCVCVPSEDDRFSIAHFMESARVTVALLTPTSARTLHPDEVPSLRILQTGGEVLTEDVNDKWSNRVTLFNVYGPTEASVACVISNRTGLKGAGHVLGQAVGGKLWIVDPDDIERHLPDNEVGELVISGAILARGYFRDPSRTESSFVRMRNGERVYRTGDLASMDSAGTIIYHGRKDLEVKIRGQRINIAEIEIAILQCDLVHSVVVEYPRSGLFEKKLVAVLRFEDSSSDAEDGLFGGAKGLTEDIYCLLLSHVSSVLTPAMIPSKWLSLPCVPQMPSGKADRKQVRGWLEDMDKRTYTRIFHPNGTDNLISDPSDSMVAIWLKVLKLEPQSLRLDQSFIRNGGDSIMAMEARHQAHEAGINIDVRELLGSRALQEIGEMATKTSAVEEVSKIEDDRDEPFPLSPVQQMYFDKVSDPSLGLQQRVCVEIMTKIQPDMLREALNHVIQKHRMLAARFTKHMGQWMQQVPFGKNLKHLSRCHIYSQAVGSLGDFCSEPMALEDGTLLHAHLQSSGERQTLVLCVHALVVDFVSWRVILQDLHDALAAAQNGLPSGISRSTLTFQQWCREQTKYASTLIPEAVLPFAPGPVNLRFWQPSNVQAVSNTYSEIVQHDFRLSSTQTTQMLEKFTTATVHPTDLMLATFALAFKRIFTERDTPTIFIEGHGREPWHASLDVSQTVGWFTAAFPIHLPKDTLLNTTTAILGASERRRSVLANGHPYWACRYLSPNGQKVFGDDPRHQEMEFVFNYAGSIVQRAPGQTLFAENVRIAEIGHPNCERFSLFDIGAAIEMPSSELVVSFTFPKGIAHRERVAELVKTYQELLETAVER

[2] = target: T2, L-tryptophanyl-S-IvoA-ΔC(E^0)
T2 chain: T1 chain

B1: standalone IvoA-C (condensation (C) domain of Aspergillus nidulans single-module NRPS IvoA) (protein)
chain: DLDLSAKLSSPLVCPADVVRSLEVNGVCIERDVEIVYTPSSIQQHMLWRQSQEPWFYRVQGDWTIEKTTTQSEPVDIDRLSHAWNQVVHRHTTLRTVFRYSSEEERFVAIVLHEVKPAISIIRKGIQTSGSLCRDDDLSPPHRMVLREKDNGSVVCELEFSHTIIDAASRSIVVQDLLDAYDGKLAHRPLDFPPFWEYIRLAQSSTPSARKEELHRAGRVVTLPFQPTHVLSKVPEACKKNEITISSFFMTAWSIVLAKHFVAHNQRVDSTSSQAVAFDYVLSDRSANIPGIESAVGPYIRLPTLETHVKEGVSLKNIARGLHAQCTFQSLSQSTQDGSSLELPSKATALQKYSTLVNIRNSGSDSLDLVSDSGEWKWILQGFSDPWDYDLVFAVNVHAGKVTGWTVEYADGVVEHSAADEIAKDLNDVVERMVCEII
In the case of B1, the “IvoA-C catalyzed hydrolysis of the protein-bound thioester; liberated free tryptophan quantified by LC-MS” value [1] is reported as “IvoA-C stereoselectively hydrolyzed D-tryptophanyl-S-IvoA-ΔC(E^0) over L-tryptophanyl-S-IvoA-ΔC(E^0)” and the “IvoA-C catalyzed hydrolysis of the protein-bound thioester; liberated free tryptophan quantified by LC-MS” value [2] is reported as “IvoA-C stereoselectively hydrolyzed D-tryptophanyl-S-IvoA-ΔC(E^0) over L-tryptophanyl-S-IvoA-ΔC(E^0)”.
